In this series the target is MutSα subunit MSH2-His6;MutSα subunit MSH6 (human;human, UniProt P43246;P52701 1-934;1-1360, |). Briefly: EMSA.

B1: G:T mismatch 35 bp (dsDNA)
DNA 1: GTGGATCCCCCGGGCTGCGGGAATTCGATATCAAG
DNA 2: CTTGATATCGAATTCCTGCAGCCCGGGGGATCCAC
On to B1, for which the binding result is “binds”.

For the origin of these results see paper PMC2562697.
